Assay results taken from patent US7550427B2, “Poly-pegylated protease inhibitors” (Dyax Corp., priority 2003, dated 2009).
Where two headings read alike, the source gives them in different places. Where no end group is shown, it is not given here.

Experiments:
[1] = Plasma clearance in rabbit of 125I-labeled protein; conditions: for Clearance (%) alpha phase: fraction cleared through alpha phase; for Clearance (%) beta phase: fraction cleared through beta phase; for Clearance (%) gamma phase: fraction cleared through gamma phase; for T1/2 alpha / T1/2 beta / T1/2 gamma: plasma clearance, ear vein injection
Experimental: (§1) The following methods can be used to evaluate the pharmacokinetics (PK) of proteins such as poly-PEGylated proteins in animals, e.g., mice and rabbits. The protein to be tested is labeled with iodine (^125I) using the iodogen method (Pierce). The reaction tube is rinsed with reaction buffer (25 mM Tris, 0.4 M NaCl, pH 7.5). The tube is emptied and then replaced with 0.1 ml of reaction buffer and 12 μl of carrier free iodine-126, about 1.6 mCi. After six minutes, the activated iodine is transferred to a tube containing the protein to be tested. After nine minutes, the reaction is terminated with 25 μl of saturated tyrosine solution. The reaction can be purified on a 5 ml D-salt polyacrylamide 6000 column in Tris/NaCl. HSA can be used to minimize sticking to the gel.
(§2) For rabbits, the material is injected into the ear vein. Samples can be collected at 0, 7, 15, 30, 90 minutes, 4, 8, 16, 24, 48, 72, 96, 120, and 144 hours post-injection. Samples can be collected and analyzed as for mice.
(§3) Data can be fit to a bi-exponential (equation 2) or a tri-exponential (equation 3) decay curve describing “fast”, “slow”, and “slowest” phases of in vivo clearance: y=Ae^−αt+Be^−βt Equation 2 y=Ae^−αt+Be^−βt+Ce^−γt Equation 3 Where: • y=Amount of label remaining in plasma at time=t post-administration • A=Total label in “fast” clearance phase • B=Total label in “slow” clearance phase • C=Total label in “slowest” clearance phase • α=“Fast” clearance phase decay constant • β=“Slow” clearance phase decay constant • γ=“Slowest” clearance phase decay constant • t=Time post administration
(§4) The α, β, and γ phase decay constants can be converted to half-lives for their respective phases as: α Phase Half-life=0.69 (1/α) β Phase Half-life=0.69 (1/β) γ Phase Half-life=0.69 (1/γ)
(§5) In the case where the data are fit using the bi-exponential equation, the percentages of the total label cleared from in vivo circulation through the α and β phases are calculated as: % α Phase=[A/(A+B)]×100 % β Phase=[B/(A+B)]×100
(§6) In the case where the data are fit using the tri-exponential equation, the percentages of the total label cleared from in vivo circulation through the α and β phases are calculated as: % α Phase=[A/(A+B+C)]×100 % β Phase=[B/(A+B+C)]×100 % γ Phase=[C/(A+B+C)]×100

[2] = 14-day daily nebulization in 12 healthy volunteers; type: in vivo, human
Experimental: It is possible, for example, to deliver DX-890 to the lung by nebulization. DX-890 activity was detected in broncho-alveolar lavages of volunteer inhaling nebulized DX-890. 12 healthy volunteers received during 14 days a single daily dose of DX-890, by nebulization lasting 5 or 20 minutes, corresponding to estimated inhaled mass of 3.75 or 15 mg respectively. […] No clinical or biological abnormalities were observed.

[3] = Resistance to oxidative and proteolytic inactivation; type: physicochemical
Text: DX-890 is derived from the second Kunitz-type domain of inter-α-inhibitor protein (ITI-D2) and can be produced by fermentation in Pichia pastoris. It includes 56 amino acids, with a predicted MW of 6,237 Daltons.

[4] = mouse, in vivo
Experimental: (§7) The protein to be tested is labeled with iodine (^125I) using the iodogen method (Pierce). The reaction tube is rinsed with reaction buffer (25 mM Tris, 0.4 M NaCl, pH 7.5). The tube is emptied and then replaced with 0.1 ml of reaction buffer and 12 μl of carrier free iodine-126, about 1.6 mCi. After six minutes, the activated iodine is transferred to a tube containing the protein to be tested. After nine minutes, the reaction is terminated with 25 μl of saturated tyrosine solution. The reaction can be purified on a 5 ml D-salt polyacrylamide 6000 column in Tris/NaCl. HSA can be used to minimize sticking to the gel.
(§8) A sufficient number of mice (about 36) are obtained. The weight of each animal is recorded. In the case of mice, the animals are injected in the tail vein with about 5 μg of the protein to be tested. Samples are recovered at each time point per animal, with four animals per time point, at approximately 0, 7, 15, 30, and 90 minutes, 4 hours, 8 hours, 16 hours, and 24 hours post injection. Samples (about 0.5 ml) are collected into anti-coagulant (0.02 ml EDTA). Cells are spun down and separated from plasma/serum. Samples can be analyzed by radiation counting and SEC peptide column on HPLC with inline radiation detection.
as §3, §4, §5, §6

[5] = Allometric extrapolation of clearance to humans; type: in vivo; conditions: 70 Kg human
Text: The data were plotted using a double 4-parameter exponential decay.

[6] = rabbit, in vivo
Experimental: as §1, §2, §3, §4, §5, §6

[7] = Acute and subchronic 4-week studies of aerosolised DX-890 in cynomolgus monkeys; type: in vivo
[8] = target: T1, hNE of sputum from cystic fibrosis children (Homo sapiens, UniProt P08246); conditions: in vitro, ex vivo and in vivo pharmacological studies (Delacourt et al. 2002); cited from earlier work
T1 construct: hNE of sputum from cystic fibrosis children; from tissue; host or cells: sputum from cystic fibrosis children
T1 sequence (P08246 30-247 limits assumed): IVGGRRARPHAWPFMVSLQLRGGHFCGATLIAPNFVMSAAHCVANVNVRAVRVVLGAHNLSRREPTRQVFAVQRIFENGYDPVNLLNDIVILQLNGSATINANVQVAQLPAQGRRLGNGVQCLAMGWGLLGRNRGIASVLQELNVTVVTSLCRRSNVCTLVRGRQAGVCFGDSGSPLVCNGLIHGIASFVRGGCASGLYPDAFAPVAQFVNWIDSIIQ

[9] = Plasma clearance in mice of 125I-labeled protein; conditions: for Clearance (%) alpha phase: fraction of label cleared through alpha phase; for Clearance (%) beta phase: fraction of label cleared through beta phase; for T1/2 alpha / T1/2 beta: plasma clearance, tail vein injection
Experimental: as §7, §8, §3, §4, §5, §6

[10] = Solubility upon dilution in Hepes buffer for the PEGylation reaction; type: physicochemical; conditions: stock ~10 mg/ml diluted 1:1 with 0.2M Hepes, pH 7.8-8.5
Experimental: • mPEG-SPA, MW 5,000 Da, NEKTAR Therapeutics, cat. no.: 2M4M0H01 (succinimidyl ester of methoxy-capped polyethylene glycol propionic acid) • DX-88 API, MW 7,054 Da, ˜10 mg/ml in PBS, pH 7.0 • DX-890 API, MW 6,231 Da, ˜10 mg/ml in 10 mM NaAc, pH 3.0 • DX-1000 API, MW 7,167 Da, ˜10 mg/ml in PBS, pH 7.0 • 0.2-0.3M Hepes, pH 7.8-8.5 • 1M Tris, pH8.0 • 1N HCl PEGylation Reaction I: • 1) Calculate the amount of PEG needed for reacting the Kunitz domain polypeptide at approximately 10:1 molar ratio of PEG:reactive group. For example, DX-890 has 5 total reactive groups, so a 50:1 molar ratio of PEG:DX-890 is used. Depending upon the Kunitz domain polypeptide and/or reaction conditions, a ratio of 25:1 to 50:1 is typically used. For example, for PEGylating 10 mg of DX-890 (MW 6,231 Da) at a 50:1 molar ratio of PEG:peptide, 401 mg of PEG (MW 5,000 Da) would be used. • 2) Just prior to reacting the Kunitz domain polypeptide with the PEG, dilute the required volume of Kunitz domain polypeptide stock 1:1 with 0.2M Hepes, pH 7.8-8.5 buffer. The peptide stock is typically ˜10.0 mg/ml. Therefore upon dilution, the concentration of the Kunitz domain polypeptide is ˜5.0 mg/ml in 0.1M Hepes, pH 7.8-8.5 buffer. […] Reaction times can be chosen to minimize precipitation. • 3) Immediately add the 1:1 diluted Kunitz domain polypeptide solution directly to the PEG powder and quickly dissolve the PEG by vortexing. Once completely dissolved, cap the tube, wrap in foil and allow to react while slowly rocking/tumbling for 2.5-3 hours at 2-8° C. to 25° C. • 4) Quench the reaction by adding 1/9th. volume of 1 M Tris, pH 8.0 for 30-60 minutes at 2-8° C. to 25° C. while slowly rocking/tumbling. • 5) Carefully and slowly adjust the pH of the quench reaction mixture to ˜ pH 7 with small additions of 1N HCl while mixing. • 6) The neutralized reaction can be stored at 2-8° C. or frozen at −20° C. to −80° C. until purification. The direct addition of the Kunitz domain polypeptide solution to PEG powder can help simplify the number of steps in the reaction process and reduce hydrolysis prior to reaction.

[11] = Clinical studies in healthy human volunteers, inhalation at 8 increasing doses; type: in vivo; conditions: inhaled mass up to about 72 mg
[12] = 12 healthy volunteers, 14 days single daily dose, nebulization, inhaled mass 3.75 or 15 mg
[13] = allometric extrapolation from mice and rabbits
[14] = allometric extrapolation, restated in days

Substance	Clearance (%) alpha phase [1] [%]	Clearance (%) beta phase [1] [%]	Extrapolated long half life clearance phase [5, 13] [h]	Clearance (%) alpha phase [9] [%]	Clearance (%) beta phase [9] [%]	Solubility upon dilution [10]	Clearance (%) gamma phase [1] [%]	T1/2 alpha [1] [min]	T1/2 beta [1] [h]	T1/2 gamma [1] [h]	Extrapolated long half life clearance phase [5, 14]	T1/2 alpha [9] [h]	T1/2 beta [9] [h]	other results
DX-890: 56-amino-acid Kunitz domain (SEQ ID NO:23) derived from ITI-D2; inhibitor of human neutrophil elastase (EACNLPIVRGPCIAFFPRWAFDAVKGKCVLFPYGGCQGNGNKFYSEKECREYCGVP; Synthetically generated peptide)	83	17	8.4	79	21	may precipitate over time								Adverse events [2, 12]: no significant adverse event; Tolerability [2, 12]: excellent; DX-890 activity in broncho-alveolar lavages ([2]; volunteer inhaling nebulized DX-890): detected; Resistance to oxidative and proteolytic inactivation [3]: resistant to oxidative and proteolytic inactivation; T1/2 alpha [4]: 1.3 min; T1/2 beta [4]: 0.987 h; T1/2 alpha [6]: 1.7 min; T1/2 beta [6]: 3.4 h; Clinical or biological toxicity, histopathological lesions [7]: no signs of clinical or biological toxicity; Effect against lesions induced by hNE of sputum from cystic fibrosis children [8]: protective effect; Safety of administration by inhalation [11]: safe
DX-88: a kallikrein inhibitor, a Kunitz domain with three available lysines (SEQ ID NO:24) (EAMHSFCAFKADDGPCRAAHPRWFFNIFTRQCEEFIYGGCEGNQNRFESLEECKKMCTRD; Synthetically generated peptide)						relatively stable in terms of solubility upon dilution								
5 × PEG5-DX-890: modified DX-890 with five attached 5 kDa PEG moieties (mPEG-SPA) (EACNLPIVRGPCIAFFPRWAFDAVKGKCVLFPYGGCQGNGNKFYSEKECREYCGVP; not fully specified; cysteine pairing not given here; also: five attached 5 kDa PEG moieties (mPEG-SPA))	28	34	330	33	67		38	2.8	4.5	97.6	about 14 days	1.1	20.2	
DX-1000: a human plasmin inhibitor, a Kunitz domain with three available lysines (SEQ ID NO:25) (EAMHSFCAFKAETGPCRARFDRWFFNIFTRQCEEFIYGGCEGNQNRFESLEECKKMCTRD; Synthetically generated peptide)	85	15	1.7	87	13	relatively stable in terms of solubility upon dilution		0.9	1			0.025	0.448	
4 × PEG5-DX-1000: DX-1000 with four attached 5 kDa PEG moieties (4×5 kDa PEG/peptide) (MHSFCAFKAETGPCRARFDRWFFNIFTRQCEEFIYGGCEGNQNRFESLEECKKMCTRD; not fully specified; cysteine pairing not given here; also: four attached 5 kDa PEG moieties (4×5 kDa PEG/peptide))	34	32	210	38	62		34	1.9	3	69.3	about 9 days	0.3	12.5	
